Test results: IntAct's records for PubMed 19008854

B1: Antiviral innate immune response effector IFIT1 (Homo sapiens), P09914 (parent)
chain: MSTNGDDHQVKDSLEQLRCHFTWELSIDDDEMPDLENRVLDQIEFLDTKYSVGIHNLLAYVKHLKGQNEEALKSLKEAENLMQEEHDNQANVRSLVTWGNFAWMYYHMGRLAEAQTYLDKVENICKKLSNPFRYRMECPEIDCEEGWALLKCGGKNYERAKACFEKVLEVDPENPESSAGYAISAYRLDGFKLATKNHKPFSLLPLRQAVRLNPDNGYIKVLLALKLQDEGQEAEGEKYIEEALANMSSQTYVFRYAAKFYRRKGSVDKALELLKKALQETPTSVLLHHQIGLCYKAQMIQIKEATKGQPRGQNREKLDKMIRSAIFHFESAVEKKPTFEVAHLDLARMYIEAGNHRKAEENFQKLLCMKPVVEETMQDIHFHYGRFQEFQKKSDVNAIIHYLKAIKIEQASLTRDKSINSLKKLVLRKLRRKALDLESLSLLGFVYKLEGNMNEALEYYERALRLAADFENSVRQGP
partner: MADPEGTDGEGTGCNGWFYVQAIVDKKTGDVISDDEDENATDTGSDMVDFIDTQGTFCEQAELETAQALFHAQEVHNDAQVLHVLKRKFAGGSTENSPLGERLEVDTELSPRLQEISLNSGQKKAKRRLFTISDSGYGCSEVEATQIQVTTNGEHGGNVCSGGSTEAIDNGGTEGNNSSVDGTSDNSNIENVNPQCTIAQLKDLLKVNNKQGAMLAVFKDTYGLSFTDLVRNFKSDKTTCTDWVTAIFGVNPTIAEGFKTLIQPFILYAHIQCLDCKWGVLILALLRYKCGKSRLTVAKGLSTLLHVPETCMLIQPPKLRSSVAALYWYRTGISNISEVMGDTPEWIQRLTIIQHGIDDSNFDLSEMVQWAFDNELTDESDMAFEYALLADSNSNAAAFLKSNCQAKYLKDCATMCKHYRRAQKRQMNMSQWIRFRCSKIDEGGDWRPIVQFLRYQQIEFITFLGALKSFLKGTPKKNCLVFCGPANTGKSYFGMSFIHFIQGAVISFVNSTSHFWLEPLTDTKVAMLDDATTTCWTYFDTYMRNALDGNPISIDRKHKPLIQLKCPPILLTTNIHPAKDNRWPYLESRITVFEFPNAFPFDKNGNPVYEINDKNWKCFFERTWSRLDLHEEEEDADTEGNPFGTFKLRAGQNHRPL

Variants of: B1
Details: with ve1_hpv18 E1, P06789

Row | Variant | effect of a mutation on the interaction
1 | MSTNGDDHQVKDSLEQLRCHFTWELSIDDDEMPDLENRVLDQIEFLDTKYSVGIHNLLAYVKHLKGQNEEALKSLKEAENLMQEEHDNQANVRSLVTWGNFAWMYYHMGRLAEAQTYLDKEENICKKLSNPFRYRMECPEIDCEEGWALLKCGGKNYERAKACFEKVLEVDPENPESSAGYAISAYRLDGFKLATKNHKPFSLLPLRQAVRLNPDNGYIKVLLALKLQDEGQEAEGEKYIEEALANMSSQTYVFRYAAKFYRRKGSVDKALELLKKALQETPTSVLLHHQIGLCYKAQMIQIKEATKGQPRGQNREKLDKMIRSAIFHFESAVEKKPTFEVAHLDLARMYIEAGNHRKAEENFQKLLCMKPVVEETMQDIHFHYGRFQEFQKKSDVNAIIHYLKAIKIEQASLTRDKSINSLKKLVLRKLRRKALDLESLSLLGFVYKLEGNMNEALEYYERALRLAADFENSVRQGP [V121E] | disrupting interaction
2 | MSTNGDDHQVKDSLEQLRCHFTWELSIDDDEMPDLENRVLDQIEFLDTKYSVGIHNLLAYVKHLKGQNEEALKSLKEAENLMQEEHDNQANVRSLVTWGNFAWMYYHMGRLAEAQTYRDKVENICKKLSNPFRYRMECPEIDCEEGWALLKCGGKNYERAKACFEKVLEVDPENPESSAGYAISAYRLDGFKLATKNHKPFSLLPLRQAVRLNPDNGYIKVLLALKLQDEGQEAEGEKYIEEALANMSSQTYVFRYAAKFYRRKGSVDKALELLKKALQETPTSVLLHHQIGLCYKAQMIQIKEATKGQPRGQNREKLDKMIRSAIFHFESAVEKKPTFEVAHLDLARMYIEAGNHRKAEENFQKLLCMKPVVEETMQDIHFHYGRFQEFQKKSDVNAIIHYLKAIKIEQASLTRDKSINSLKKLVLRKLRRKALDLESLSLLGFVYKLEGNMNEALEYYERALRLAADFENSVRQGP [L118R] | disrupting interaction
3 | MSTNGDDHQVKDSLEQLRCHFTWELSIDDDEMPDLENRVLDQIEFLDTKYSVGIHNLLAYVKHLKGQNEEALKSLKEAENLMQEEHDNQANVRSLVTWGNFAWMYYHMGRLAETQTYLDKVENICKKLSNPFRYRMECPEIDCEEGWALLKCGGKNYERAKACFEKVLEVDPENPESSAGYAISAYRLDGFKLATKNHKPFSLLPLRQAVRLNPDNGYIKVLLALKLQDEGQEAEGEKYIEEALANMSSQTYVFRYAAKFYRRKGSVDKALELLKKALQETPTSVLLHHQIGLCYKAQMIQIKEATKGQPRGQNREKLDKMIRSAIFHFESAVEKKPTFEVAHLDLARMYIEAGNHRKAEENFQKLLCMKPVVEETMQDIHFHYGRFQEFQKKSDVNAIIHYLKAIKIEQASLTRDKSINSLKKLVLRKLRRKALDLESLSLLGFVYKLEGNMNEALEYYERALRLAADFENSVRQGP [A114T] | disrupting interaction
